In the NTF2 design screens of Basanta et al. (2020):

Assay: protease stability score; higher = more stable; yeast display proteolysis, trypsin and chymotrypsin;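 note: relative to predicted unfolded state with 0 unfolded-like and 1 meaning tenfold more protease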

Sequence	protease stability score
NEHEKLLKESLEELRHALRTGDEESLERLVDPHARMVVNGVTYHGREYLHRFFHRIDYFHNEHLDVKEVHVQGDKIHFDVVTHGVFHVGDKKIKDTIRLSSIAEKIDGRWFNREIFHH	0.412
HETKHLVDKFIELFKHNLETGDWDRLLELADPRTRVHVGDKTLIGMHEFRELHLRLIEKHGIKLNYYVHEVHVQGDKAHVDNEREEDYNGRVVSFRIRMHVEKFDGRWYLTRIEFN	1.33
DEEERHMKKLLDELLRAWVTGDESRLSELLDPNARSIVNGKSSHGREESEKIVRWAGVKHFNEDDTKLINGVVVVKGTMEVDGVTWEVDIRNFIFDGRVKEVRIIIR	1.19
SELEELMHKFAKLFIHLWETGNEELLTKMADPNTRLIINGREVIGMERLLEVFHYIKTEIRLDTMRLEHIDWQGNKAHSHTRLHGEFNGRRHEDESEIHIRVIDGRVHTFEIRFK	1.2
SEDKEADEIIIEKIMRALTTGDENLWKRLLDPNVRFEYDGVEMHGWEEIKKLLERIDHFHVDDHKIKDVRIIDGRIDNYGRLRGTIDINGREIHTILHVRILVLKIDGKWTVESEHSK	1.43
EHLIEELREMTERIVETILTGDEKHLADLADPNTRSHTHIGDKHYRFHGMDLIYELLHQVKNMRLHLRHTDASFVGNKVYVRLHIDLIFNGRDIHFTIHIIIDKYNGKWFIHHIELIFN	1.31
DEENEILRELHRELVEAWLTGDEELLRRLHDPDVRVHIGDKDLVGMEQMIEDIRFWLRRFDHLRIHIHRVRAINGVIHVDGELQLFQGDKSIRHQVIIELEVVNGRIKNTKFSTI	1.4
SEEEDQARKIMEILIHVFLTGDWHQLMRLLDPNTRYEIRFENHEEHNHGREDIVRWLIEFIEEMRTLVIIRHIEVQGDKAILDIELQLDINGREFRWKTLLHFRIVDGVLKMYYIHIE	1.47
SEYEEWSERHLKHWEDARDTGDFDSETDLLDPHMRFQLIIGEKRVRFHGMEVLIEHVLRFKNATVREQKSHVEVIDGRIYIRLEGRYDVNGKDFDVEIIIISEKVNGRWILRYIEIRIH	1.55
DKEEELMKTFSQLFEHWVETGDETEMLQNADPHAKSRFNGREIHGREDIVELLKRIIDQADHHEVHTDKVKVVGDKIHINSSFHIHIGEFTIRLHYELIVDKINGRWILKEVRLG	0.927
SEELRILVELVSKFYDAMKTGDEKTLKELADPNMRIIVGDKVLHGMESLKTHLKRIDHIYVHHFDYKKVDVQGDKVHVRGHSNLVLEFENHREEVIIHENWIVTKYNGRWSLESLEIR	1.49
SEDEEKASEVARRFVRSLATGDFDTLTRLMDPNYKHVYGDKEFVGREVIREHLEELRLHFEDNKVKHVRVIGDKIDTDMEVRFTVEFDGVRVHHEMKVEFRILKINGRWFLEFTIIR	0.337
REEEEHAEKVVKLMLHWLHTGDEEKFINNADPNVKLQIDGQRIHGWDDWERRMNEKLQRVDYIDNVVIRHIDNQGDKAIFHGELRGIQGDKHFTFHVELRIRVVNGVIHEMEIIIR	2.05
SEEEHRVKELSELMLHWFKTGDEETMDHLMDPDARFELQVGDKEVHSHGWESVHKVLRRTLFWLGADHYNDKDFKHQGDKSKIDMTVHVGDKTVEVTLHLKIVDGRLKFLEIRVK	1.16
SERDELVEKLMESALDFWRTGNEDLMERLLDPHVRLDINGREHHGREVVIKAFREIWMLLGIDHIDIHHVDIQGEYVHLDVRVKVNGKDTRSRIELIVVDGKITELIIRLR	2.51
DEDHERSEIASKITYKIIETGNEDLFSHFADPNTRLHVNGVDSVGMEDVIKVHRKLWKDLGVDHFILHDQKVDVVDGVAEVRLDTRLRFNGREFETEVRFLVLKFNGRWWIRMIEFRVI	0.968
SEQWEEAKRLTDLYLTTSHTGDEQLSREFMDPHARTIVDGVEVHGMEEWANRFMRFVKQLRVDFRIHDMDVQGEKVDVDIRIRFVFNGVEHRIESILIVHKINGRWLMKEQRII	1.34
DEDHDIIREALERWRHYVHTGDWRSLLKMMDPHVRNDVDGVDIIGREEASRYYREVFERLGVDHIDIHLRDMQIQGDKVTVHSELELNYNGRRFMHDIEIISVKVDGRWSIRSVFSK	1.41
SEVEELSRRVAEFTWEVLRTGDERLLREMIDPNVRMEIDGQEYHGMELLVEHWIKLHQKFPNLKLHLREVRVIDGVAHVRLEVRFNGVRLEIEVVITKINGRWSNTFVHETDR	1.13
SEDERDAHRILDEEFEAIWTGDEHFLRELLDPNVQMDFNGVKLHGRHAFREIFRRFDWVDRIRLEEIRIFNGKVEIHIREDGFIDGRRTNTTSVFFMEKVDGRWKVRKMRIG	1.66
NEHEEYARRQLELWLHATRTGDEETVRRLADPDVRVIVDGREHHGMEQLLRWMIELRITDFKEDTYEIQGNKIKIRGILYIEIGDKHETRFTTIELNWFNGVLKHIKVEVR	1.28
SEEHEQLLRMAQIWIKNWLTGDEKSMIELADPRVLFIYGDKIHHGWEEMSKFLHRLMEEIRIEDLRIDSFRAYNGRVEHDTTIDVEIGDKRINLKHHFHLDVVDGRIRHVKVKID	0.726
DEVHEEAERASEHFFESLLTGDEKSTESFIDPHAKMEFSFNGRNYDMIGRMWVEIEHRLLGIDHYIHKDNRTHSQGEKLLLIIHGRIRVGDKEFDVELHVIMMKIDGQWNVKRLEVRVK	1.25
HRVETEAHHMMKLLEHWLQTGDEEMWKTYADPDVRIDVDGKTLHGRDNFEHVLRMYGIKHRHIRDSHYHFIGDYLHYNLDVEVHFNGKDLKTHFTFQIRKVDGRWELERVHIRVH	0.941
DEKKAKEAAHRLLEAMVTGDPRKLNENADEDVQVEYGDKSYTGREKLNEWAHEFQKRVDHVRIESIHQRGDTATVKVRVEHNGETDTFVLIVEAHNGRAKRIRQETR	1.1

Sequence	protease stability score
DETKEHVHNWMELVVHWYETGDEEEILKNADPNVRTIFNGVDYHGWEHLEEILKKIRHFFKNARVEIERIEIQGDKLILDVNVEINGQRDTLHIHVKVVDGVMKNLEIRHG	1.59
SEDEHAARWMTEDLERHTETGDEHRLTELIDPHAKLIFNGREYHGWEDYVKLFRELRVRRLEIKRVEVQGDKLFIDSTLRGNVNGREIDFEIHFVTHKINGRWKVHSVEII	1.69
DEEEEHMRKMHEKFRKIRHTGNFEDYFRLLDPNARMHVNGQNMHGRDVVSKWFKHFVEEIRIEHFEIHDVKYIDGRSHEDGWLVGTIDGKHFDSRTEIILIVVDGKLKQFHIHIR	0.489
SEDSEDAKKVVEISIHTVVTGDEHTNTRLFDPHVRIEIGDKEIHGREKFVHIIRHWRMEAHVEVDEVKRQGDKVRVDGHVRIILDINGRKIDIESQVDVNILKVNGRWLIESEHIH	1.08
SEEEEFARQMMEHFLKNFITGNEELFKENLDPDVRIIIVVNGREFENVGREHFWHHFRRSFEELGVKHLHLKDIRVINGRLFLFAEIEIGDKRVELHFLVLKVDGKWVIEELHIKFL	2.32
DERHDDRNHAIEAFKFMLDTGDWRVYSRNIDPNMRLEIGDKTFHGREELEHHITQIDHHHTHTLTIEHIDRVGDFVDIHITLSVTVIFDGRNETKTFHVDIHLVKIDGKWLIHKESVK	0.545
DEAHEWLKTLADLFFHWMLTGDFEHWIDYLDPDAKIEFEGRSNHGRENIYQLLLELKQEIRVRDYELKDVRIQGEKLLLNVHLHGHIGDKEIRTDTVLRLRVVDGRLKEVHIEIR	1.52
DEHEKHDRELKRIWVELFETGDEDTLIELADPNPRSRVNGKEFHGMEDIVQFLREWKMRIKGVREEIHHVDVINGRVRIDMKRFVGDKEFDVTIHLYVINGRFKQEEVRVH	0.222
SEDEEDLRRIFELLMELWLTGDERHMEHLIDPNAKLHYDGVEYHGREDARRLIHRFDVFEDARVRRVRLIDGQVRMDTHFIGRVDGRRIQVDSIIFMRKINGRWVSKEEVYV	1.34
DDRYRLVEHMSRHFFENWLTGDFDRLVELADPTVRSHFEYGDKEILNIGMEEHVKMERHWREKMGANHLFLDDVRIQGNKAHIHGQLDVGDKHNRARLELNIVDGRIKEIYIEIR	0.018
SEEEKDATDMLEHYIRSLLTGDEHLWRELADPNVKTEIDGVEMIGRESWRILVERLGVDHSDVEDIDFRFYDGRLNVRVKTRHHVNGRTFETELIVIIEKINGRWRVTQIEIRIK	2.5
DEEEKYIKSLAKLISHAISTGDFELFHKLVDPDVRLIVDGVDLHGWELATKWIEEIRVEDHEVRVKEVRFVDGRANSDGEVILDGEYNGREKRVERKTILVSLKVDGRWTVKSLEIK	0.882
DEEEEELHRLSRLILHLLLTGDWEKLADLADPHMRFEMVVGDKNEEFHGRERWLKFLRMVREKFKGMRIHLQDERVYGDKNDLDIVLNVNGQRHKVHLHLVVVDGVIKEIKIKVE	2.18
TEDEDYMHDATREFVTNVATGDEDRLRELMDPRTRHVYNGVRLHGRNLALEFWTHFRRELGVDHIEIRIRDLKFQGDYIHLHTEIVMDFNGVRIIYDTFVRVRKFNGQWMLQSSEIH	0.194
SEIKEEMDEVSELWQRALETGDEHEVLKLMDPHARIDFDGVDHVGWREVTKSLKHMRIDHIKIRHITVIGNKIDIDGEVNMTVNGQERQETVHIELIVVNGRIRHIRIHLV	0.396
DEDTHRLELVLDLWSFAMLTGDEETLTKLIDPNMRIEIGDKIAHGREKLHEMLREIRIQIHHVHLDDYRVYGNKITLHVHIRMTLHVDGRTIHTELKTEIIIHKIDGKWVFHKVRFE	1.28
DEDTHYARHIMELIIRNFITGDEDDLLRLMDPNTRLHINGVDNHGREEIKRDLERWWHRYPNITVIIRVEHMTAIDGKAHSEMRVQIHYNGVTYSRETRVILIVINGRLHSVEFRID	1.11
DDLDRYAEEAEKRHYENLETGDENRLQENADPHTRMDFNGRKFHGMDHNYHWMRKIREDLGVDNIRIHIHHMSVVDGVLHLDLIIRYGDKELRLHFVSEKINGRWRLKEVYYK	0.855
DEDTELSKHFDDVFAEYVETGDEHSLRHLMDPNTRILVNGVDLVGWELVLDHLDRHLKEMRIKRVTTHEMRIYGDKVTIHSKLKMHIDGRDVDTDTEIIVKKVDGKWIMHFVNLH	2.25
SESEKASEIATKELEEVEKTGDEKTIEDYMDPNTRLHINGVDLHGMENFLEFWHRLLRKLGFESTSFHLKSSRIQGNKIKMHSIIHVKQGEKDISFDVEYIALKFNGRWIEESMSSK	1.32
SDYTEVAHEIMDEWSKAILTGDEDTVEELLDPNVRVDINGQEIHGWETIFKKLRRFVDELGIDHVHVNTKRVKLIGNYIHVDGELRYHQGDFHIVRKVRLLIVKINGQWLIREINLK	2.42
SREEEDAKLALDLLIEALKTGDEHEIKELLDPTTRMEVGDKELVGRENISKHVSDMVHRIDHIEVRLHDMTIINGVVHLDTRLILHFNGRTHTQETRVIVWKFNGRWIITHIHVK	1.28
DEEDRHLEEFIRLWLHFFFTGDWEFHMKNADPNVKLDAENRSVHGRDDASRTLVEIVRRLGIDHVELKDSHVIDGVIELHLELKIGDKRRTMHIHINIFNGRIRSVRIHFS	1.28
TEEYRHVEEVIRMTFELLRTGNEQELEDRADPHAKSNVNGQEIHGRERFTRWFLEMITHLGVKHVRVRHYTVVNGRVIVHLEFDFDGVKIDYTVVIWKINGKWFIKISHEEHH	2.09
DDEERIWRELLEDLLKALKTGDEHRIQDLLDPHVRLEIGDKEFHGREEVTEWFRRLMEKIKGAVFHIHIHDFRIQGDKLLADTRLIIHIGDKHEESETEMIVLKVNGRWLIDEIRVK	2.59
